Measured values from CN117843802A (BEILAI PHARMACEUTICAL CO LTD, dated 2024).

Key:
Human IL-17A蛋白 = molecular target: T1, Human IL-17A蛋白 (Human, UniProt Q16552 24-155); assay: cell-based or functional assay
T1 sequence (looked up): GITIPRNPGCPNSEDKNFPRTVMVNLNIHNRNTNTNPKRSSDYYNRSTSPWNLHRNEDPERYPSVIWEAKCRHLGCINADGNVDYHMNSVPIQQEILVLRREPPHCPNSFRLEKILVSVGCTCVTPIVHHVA

[1] = molecular target: T2, Human IL-17A重组蛋白 (IL-17A-His) (Human, UniProt Q16552 24-155, biotinylated (Biotin-IL-17A-His) in the ELISA of paragraph 259; site not stated); assay: ELISA: antibody coated at 2 ug/mL, Biotin-IL-17A-His titrated from 10 ug/mL (5-fold, 7 points), HRP-Streptavidin
T2 construct: Recombinant antigen expressed in E. coli BL21 from pET28a, purified on a nickel column; also called IL-17A抗原蛋白; IL-17抗原
T2 sequence: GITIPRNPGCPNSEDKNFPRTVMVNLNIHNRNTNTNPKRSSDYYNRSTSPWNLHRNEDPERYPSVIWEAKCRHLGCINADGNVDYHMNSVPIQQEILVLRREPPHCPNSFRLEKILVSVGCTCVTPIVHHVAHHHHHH

IC50, luciferase activity of 293F-IL-17RA-IL-17Rc-ACT1-NFκB-Luc reporter cells (Human IL-17A蛋白): 1.36 µg/mL
EC50 [1]: 10.1 µg/mL
B1: Ixekizumab (antibody, human IgG4 S228P, kappa, V domains shown)
VH: QVQLVQSGAEVKKPGSSVKVSCKASGYSFTDYHIHWVRQAPGQGLEWMGVINPMYGTTDYNQRFKGRVTITADESTSTAYMELSSLRSEDTAVYYCARYDYFTGTGVYWGQGTLVTVSS
VL: DIVMTQTPLSLSVTPGQPASISCRSSRSLVHSRGNTYLHWYLQKPGQSPQLLIYKVSNRFIGVPDRFSGSGSGTDFTLKISRVEAEDVGVYYCSQSTHLPFTFGQGTKLEIKR
notes: Made in-house: variable regions cloned into pcDNA3.4-hIgG4 and pcDNA3.4-hIgKc, expressed in 293F cells, purified on Protein A; also called 阳性对照抗体; 阳性抗体
